Molecular target: PU.1 DNA-binding domain (PU.1^DBD) (human, UniProt P17947 168-270)
Assay: NMR titration

B1: EWS low-complexity domain (EWS^LCD) (domain or fragment)
chain: ASTDYSTYSQAAAQQGYSAYTAQPTQGYAQTTQAYGQQSYGTYGQPTDVSYTQAQTTATYGQTAYATSYGQPPTGYTTPTAPQAYSQPVQGYGTGAYDTTTATVTTTQASYAAQSAYGTQPAYPAYGQQPAATAPTRPQDGNKPTETSQPQSSTGGYNQPSLGYGQSNYSYPQVPGSYPMQPVTAPPSYPPTSYSSTQPTSYDQSSYSQQNTYGQPSSYGQQSSYGQQSSYGQQPPTSYPPQTGSYSQAPSQYSQQSSSYGQQ
Does B1 bind?
Result: binds

From paper PMC12107149 (Proceedings of the National Academy of Sciences of the …, 2022)
